Measurements from the supplement of paper PMC10065799, “High-throughput profiling of sequence recognition by tyrosine kinases and SH2 domains using bacterial peptide display” (eLife, 2023).

How the values were obtained:
AncSZ = experiment: phosphorylation enrichment, bacterial display (enrichment ratio); higher = better substrate or ligand; peptides without Tyr show the background
EPHB1 = EPHB1 (UniProt P54762); experiment: as above
EPHB2 = EPHB2 (UniProt P29323); experiment: as above
FGFR1 = FGFR1 (UniProt P11362); experiment: as above
Chain of FGFR1 (P11362 whole entry, looked up): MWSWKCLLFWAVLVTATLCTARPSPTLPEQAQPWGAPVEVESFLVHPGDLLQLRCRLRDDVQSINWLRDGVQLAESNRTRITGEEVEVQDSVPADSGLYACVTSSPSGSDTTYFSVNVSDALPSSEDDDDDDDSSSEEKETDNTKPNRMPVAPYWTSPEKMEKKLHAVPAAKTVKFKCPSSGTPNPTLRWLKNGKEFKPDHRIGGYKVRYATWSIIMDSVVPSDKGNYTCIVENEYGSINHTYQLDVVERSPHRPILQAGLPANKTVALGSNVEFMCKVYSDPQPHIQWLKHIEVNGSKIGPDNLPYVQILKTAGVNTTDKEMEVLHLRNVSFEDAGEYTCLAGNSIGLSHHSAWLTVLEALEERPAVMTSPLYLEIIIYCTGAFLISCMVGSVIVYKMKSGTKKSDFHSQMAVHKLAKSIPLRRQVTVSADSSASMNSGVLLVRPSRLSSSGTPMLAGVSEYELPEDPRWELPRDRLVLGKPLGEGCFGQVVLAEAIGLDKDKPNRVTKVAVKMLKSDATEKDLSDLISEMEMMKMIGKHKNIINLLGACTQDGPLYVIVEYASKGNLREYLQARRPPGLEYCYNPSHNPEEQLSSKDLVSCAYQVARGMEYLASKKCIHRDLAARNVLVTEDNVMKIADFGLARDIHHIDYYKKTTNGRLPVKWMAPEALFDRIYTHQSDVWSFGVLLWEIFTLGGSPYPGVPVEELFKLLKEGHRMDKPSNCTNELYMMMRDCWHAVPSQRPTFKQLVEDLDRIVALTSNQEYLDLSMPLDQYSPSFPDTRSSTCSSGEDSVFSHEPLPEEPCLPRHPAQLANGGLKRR

FGFR3 = FGFR3 (UniProt P22607); experiment: as above
Fer (mouse) = experiment: as above
Fes = Fes (UniProt P07332); experiment: as above
Fyn = Fyn (UniProt P06241); experiment: as above
Chain of Fyn (P06241 whole entry, looked up): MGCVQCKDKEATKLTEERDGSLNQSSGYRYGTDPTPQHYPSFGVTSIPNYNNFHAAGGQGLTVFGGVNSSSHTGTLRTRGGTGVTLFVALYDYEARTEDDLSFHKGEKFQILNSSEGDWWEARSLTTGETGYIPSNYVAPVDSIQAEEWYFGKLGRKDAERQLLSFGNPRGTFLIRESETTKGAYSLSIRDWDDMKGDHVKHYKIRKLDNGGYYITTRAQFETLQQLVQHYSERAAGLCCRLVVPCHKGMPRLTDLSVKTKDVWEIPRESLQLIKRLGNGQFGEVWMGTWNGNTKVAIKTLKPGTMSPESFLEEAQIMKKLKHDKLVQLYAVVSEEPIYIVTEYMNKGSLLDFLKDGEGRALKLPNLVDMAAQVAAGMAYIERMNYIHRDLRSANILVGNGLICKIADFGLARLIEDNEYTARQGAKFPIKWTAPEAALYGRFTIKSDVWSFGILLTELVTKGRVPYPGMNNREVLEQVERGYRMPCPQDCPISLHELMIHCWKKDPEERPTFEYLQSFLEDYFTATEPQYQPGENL

Hck = Hck (UniProt P08631); experiment: as above
Chain of Hck (P08631 whole entry, looked up): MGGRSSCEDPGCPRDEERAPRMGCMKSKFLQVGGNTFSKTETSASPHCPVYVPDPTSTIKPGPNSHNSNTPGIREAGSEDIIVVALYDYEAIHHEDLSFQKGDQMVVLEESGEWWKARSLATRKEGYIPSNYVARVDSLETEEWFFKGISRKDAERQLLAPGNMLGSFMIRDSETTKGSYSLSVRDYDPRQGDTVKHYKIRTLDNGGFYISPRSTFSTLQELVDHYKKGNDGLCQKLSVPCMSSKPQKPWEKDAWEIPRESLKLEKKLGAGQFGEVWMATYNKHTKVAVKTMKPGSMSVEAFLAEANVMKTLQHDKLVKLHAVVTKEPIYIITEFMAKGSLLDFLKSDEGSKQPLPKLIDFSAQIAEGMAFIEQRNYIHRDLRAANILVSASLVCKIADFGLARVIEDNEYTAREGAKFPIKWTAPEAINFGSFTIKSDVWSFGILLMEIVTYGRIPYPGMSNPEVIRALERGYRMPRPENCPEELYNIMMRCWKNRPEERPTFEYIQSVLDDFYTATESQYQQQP

Jak2 = Jak2 (UniProt O60674); experiment: as above
MERTK = MERTK (UniProt Q12866); experiment: as above
Chain of MERTK (Q12866 whole entry, looked up): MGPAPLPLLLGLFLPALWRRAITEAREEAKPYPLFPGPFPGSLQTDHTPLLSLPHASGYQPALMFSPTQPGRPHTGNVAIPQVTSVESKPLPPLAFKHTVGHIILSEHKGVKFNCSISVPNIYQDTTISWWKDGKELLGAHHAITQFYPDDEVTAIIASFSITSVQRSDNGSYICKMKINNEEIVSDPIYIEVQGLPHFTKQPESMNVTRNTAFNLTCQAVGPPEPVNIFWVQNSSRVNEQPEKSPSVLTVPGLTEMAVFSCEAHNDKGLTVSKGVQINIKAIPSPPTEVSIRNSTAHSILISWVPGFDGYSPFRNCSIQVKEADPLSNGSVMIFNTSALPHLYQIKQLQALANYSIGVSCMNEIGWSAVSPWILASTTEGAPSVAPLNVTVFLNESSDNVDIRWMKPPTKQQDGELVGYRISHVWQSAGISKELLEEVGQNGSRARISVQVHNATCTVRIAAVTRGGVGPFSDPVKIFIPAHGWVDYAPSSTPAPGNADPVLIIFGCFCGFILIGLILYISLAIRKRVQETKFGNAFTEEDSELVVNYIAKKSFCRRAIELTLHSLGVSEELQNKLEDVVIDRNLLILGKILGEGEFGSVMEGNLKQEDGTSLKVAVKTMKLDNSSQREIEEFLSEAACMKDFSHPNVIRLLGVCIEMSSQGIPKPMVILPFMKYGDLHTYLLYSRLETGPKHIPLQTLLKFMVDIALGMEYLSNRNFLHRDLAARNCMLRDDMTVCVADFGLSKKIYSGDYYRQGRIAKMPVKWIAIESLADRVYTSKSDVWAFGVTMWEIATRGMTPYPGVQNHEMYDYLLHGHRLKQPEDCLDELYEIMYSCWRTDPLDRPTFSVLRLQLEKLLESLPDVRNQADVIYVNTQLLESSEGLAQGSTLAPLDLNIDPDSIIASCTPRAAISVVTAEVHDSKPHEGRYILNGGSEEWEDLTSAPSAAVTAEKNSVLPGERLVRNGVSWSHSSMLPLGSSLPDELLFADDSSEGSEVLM

c-Abl (mouse) = experiment: as above
c-Src = experiment: as above
Grb2 SH2 = Grb2 SH2 (UniProt P62993); experiment: SH2 binding enrichment of the phosphorylated peptide, bacterial display (enrichment ratio); higher = better substrate or ligand; peptides without Tyr show the background
SHP2-C SH2 = experiment: as above
c-Src SH2 = experiment: as above
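For SH2 binding enrichment of the phosphorylated peptide, bacterial display in this document: peptide library displayed on the E. coli surface as eCPX fusions, selected cells deep-sequenced, score is each peptide's frequency after selection divided by its frequency in the input.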
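For phosphorylation enrichment, bacterial display in this document: 11-residue human phosphosite peptides and single-mutation variants displayed on the E. coli surface, counted by deep sequencing, each peptide's frequency after selection divided by its frequency in the unselected input library; frequency after pTyr selection over input frequency; kinase dosed for 20-30% of maximal phosphorylation in three min.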

Chain of EPHB1 (P54762 whole entry, looked up): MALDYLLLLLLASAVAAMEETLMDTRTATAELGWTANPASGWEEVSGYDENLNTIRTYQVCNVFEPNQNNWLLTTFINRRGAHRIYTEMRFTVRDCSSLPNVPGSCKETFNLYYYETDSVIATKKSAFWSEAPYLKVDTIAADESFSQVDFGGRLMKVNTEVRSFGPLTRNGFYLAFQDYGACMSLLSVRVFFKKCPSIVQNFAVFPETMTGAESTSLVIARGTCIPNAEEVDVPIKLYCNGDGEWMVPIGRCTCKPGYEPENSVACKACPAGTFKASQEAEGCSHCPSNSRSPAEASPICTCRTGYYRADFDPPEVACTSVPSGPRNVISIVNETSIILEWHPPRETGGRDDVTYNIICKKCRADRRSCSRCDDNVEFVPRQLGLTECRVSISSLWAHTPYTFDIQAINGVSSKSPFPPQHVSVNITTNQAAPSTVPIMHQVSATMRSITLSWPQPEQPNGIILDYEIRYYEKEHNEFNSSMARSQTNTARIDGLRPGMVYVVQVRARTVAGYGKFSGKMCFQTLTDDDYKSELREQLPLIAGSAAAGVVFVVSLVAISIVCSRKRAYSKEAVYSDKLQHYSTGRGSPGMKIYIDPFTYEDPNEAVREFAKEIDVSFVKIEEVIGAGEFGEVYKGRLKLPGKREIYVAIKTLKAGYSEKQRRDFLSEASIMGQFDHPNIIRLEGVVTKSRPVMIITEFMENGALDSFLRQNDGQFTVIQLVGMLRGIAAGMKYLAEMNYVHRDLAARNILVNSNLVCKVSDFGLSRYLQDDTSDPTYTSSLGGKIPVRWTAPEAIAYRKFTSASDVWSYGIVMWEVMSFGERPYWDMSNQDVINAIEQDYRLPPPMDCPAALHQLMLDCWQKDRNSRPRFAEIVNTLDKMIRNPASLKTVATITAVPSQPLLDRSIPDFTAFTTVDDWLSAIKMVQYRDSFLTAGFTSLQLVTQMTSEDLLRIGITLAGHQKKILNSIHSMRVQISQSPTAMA
Chain of EPHB2 (P29323 whole entry, looked up): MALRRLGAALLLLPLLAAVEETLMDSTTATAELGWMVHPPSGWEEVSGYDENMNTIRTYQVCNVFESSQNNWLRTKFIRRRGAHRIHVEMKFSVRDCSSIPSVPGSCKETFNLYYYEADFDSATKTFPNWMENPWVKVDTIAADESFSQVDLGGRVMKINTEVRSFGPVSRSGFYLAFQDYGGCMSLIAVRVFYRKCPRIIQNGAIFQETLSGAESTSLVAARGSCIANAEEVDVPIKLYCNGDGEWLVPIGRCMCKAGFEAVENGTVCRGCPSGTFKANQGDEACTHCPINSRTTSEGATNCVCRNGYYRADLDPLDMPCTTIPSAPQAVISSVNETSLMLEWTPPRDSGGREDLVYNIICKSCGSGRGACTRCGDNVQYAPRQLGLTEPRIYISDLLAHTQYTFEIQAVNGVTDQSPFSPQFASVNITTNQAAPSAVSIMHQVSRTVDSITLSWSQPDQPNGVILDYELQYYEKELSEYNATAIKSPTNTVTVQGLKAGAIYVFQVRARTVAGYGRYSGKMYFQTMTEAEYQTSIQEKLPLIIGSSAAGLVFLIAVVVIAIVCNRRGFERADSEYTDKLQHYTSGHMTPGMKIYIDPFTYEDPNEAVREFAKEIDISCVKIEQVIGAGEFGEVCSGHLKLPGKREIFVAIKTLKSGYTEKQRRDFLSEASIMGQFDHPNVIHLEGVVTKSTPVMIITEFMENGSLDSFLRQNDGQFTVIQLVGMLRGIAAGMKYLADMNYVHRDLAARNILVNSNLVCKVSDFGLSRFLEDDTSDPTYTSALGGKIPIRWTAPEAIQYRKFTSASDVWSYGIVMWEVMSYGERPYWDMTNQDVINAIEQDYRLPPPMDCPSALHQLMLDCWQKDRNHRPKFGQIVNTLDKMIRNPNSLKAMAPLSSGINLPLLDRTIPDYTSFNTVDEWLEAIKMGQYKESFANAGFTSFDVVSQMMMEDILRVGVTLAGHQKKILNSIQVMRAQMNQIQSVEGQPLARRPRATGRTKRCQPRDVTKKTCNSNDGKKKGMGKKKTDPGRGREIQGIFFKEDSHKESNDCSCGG

| Sequence | SH2 binding enrichment (Grb2 SH2) | SH2 binding enrichment (SHP2-C SH2) | SH2 binding enrichment (c-Src SH2) | phosphorylation enrichment (AncSZ) | phosphorylation enrichment (EPHB1) | phosphorylation enrichment (EPHB2) | phosphorylation enrichment (FGFR1) | phosphorylation enrichment (FGFR3) | phosphorylation enrichment (Fer (mouse)) | phosphorylation enrichment (Fes) | phosphorylation enrichment (Fyn) | phosphorylation enrichment (Hck) | phosphorylation enrichment (Jak2) | phosphorylation enrichment (MERTK) | phosphorylation enrichment (c-Abl (mouse)) | phosphorylation enrichment (c-Src) |
| --- | --- | --- | --- | --- | --- | --- | --- | --- | --- | --- | --- | --- | --- | --- | --- | --- |
| PEVCDYGLGGG [GSTO1_Y239_A236V] | 1.05 | 1.16 | 0.562 | 1.6 | 0.575 | 0.812 | 0.689 | 0.803 | 0.807 | 1.07 | 0.965 | 0.765 | 1.03 | 0.837 | 0.726 | 0.611 |
| PFSNSYENSLI [EPOR_Y489_P488S_YF] | 29.8 | 1.13 | 5.68 | 1.4 | 1.15 | 0.498 | 0.577 | 1.51 | 0.809 | 1.21 | 0.727 | 0.78 | 1.16 | 0.402 | 0.877 | 0.862 |
| PINLYYLMDLS [ITGB2_Y131_D128N] | 1.22 | 1.16 | 0.624 | 3.58 | 8.27 | 6.74 | 16.3 | 15.7 | 5.63 | 2.62 | 4.6 | 4.27 | 6.89 | 11.6 | 1.44 | 4.42 |
| PIYEGYALPHA [ACTA1_Y171] | 0.72 | 0.617 | 2.12 | 2.11 | 27.2 | 35.7 | 1.01 | 0.995 | 26.2 | 3.4 | 19.8 | 17.3 | 1.4 | 18.1 | 31.3 | 14.8 |
| PLLEYYWDIFT [CDAN1_Y713_R714W] | 1.25 | 1.25 | 0.959 | 2.64 | 2.64 | 1.28 | 8.76 | 7.06 | 0.906 | 2.27 | 1.32 | 0.79 | 2.65 | 1.02 | 1.61 | 1.19 |
| PLRANYLIARV [HLCS_Y635_D634N] | 1.27 | 1.29 | 0.992 | 0.927 | 1.12 | 0.861 | 0.707 | 0.853 | 0.7 | 1.12 | 0.769 | 0.763 | 1.27 | 0.716 | 2.74 | 1.01 |
| PLYRKYWPNHI [GREB1L_Y1560] | 1.09 | 1.24 | 0.822 | 1.48 | 0.813 | 0.645 | 1.15 | 1.07 | 0.84 | 1.34 | 1.07 | 1.11 | 0.95 | 0.708 | 1.05 | 0.882 |
| PPTFRYERGSR [INPPL1_Y663_YF] | 0.503 | 0.318 | 0.336 | 0.974 | 0.503 | 0.579 | 0.803 | 0.69 | 0.546 | 0.822 | 0.671 | 0.622 | 0.692 | 0.753 | 0.704 | 0.521 |
| PQGVRYIFTID [DCX_Y103_YF] | 0.602 | 1.09 | 0.654 | 1.68 | 0.587 | 0.524 | 0.61 | 0.96 | 0.826 | 3.66 | 0.617 | 0.714 | 1.89 | 0.664 | 1.38 | 0.587 |
| PSSNLYFRCLT [CNGA3_Y168_W171C_YF] | 0.75 | 0.636 | 0.379 | 1.5 | 0.828 | 0.809 | 1.19 | 1.03 | 0.694 | 1.63 | 0.707 | 0.88 | 1.66 | 0.808 | 0.967 | 0.48 |
| PSSNLYYRCLT [CNGA3_Y168_W171C] | 0.936 | 0.629 | 0.484 | 1.68 | 1.23 | 0.78 | 1.9 | 1.87 | 0.655 | 1.06 | 0.883 | 1.89 | 2.31 | 3.88 | 0.742 | 1.05 |
| PVQAADQKVVA [HBB_Y131_Y131D] | 0.731 | 0.733 | 0.388 | 0.918 | 0.508 | 0.718 | 0.654 | 0.816 | 0.482 | 1.18 | 0.62 | 0.576 | 0.893 | 0.593 | 0.781 | 0.605 |
| PVQAAYQNVVA [HBB_Y131_K133N] | 34.4 | 1.49 | 3.07 | 0.931 | 0.915 | 0.567 | 0.699 | 0.692 | 0.98 | 0.877 | 0.644 | 0.536 | 0.645 | 0.591 | 0.591 | 0.49 |
| PVQAAYQQVVA [HBB_Y131_K133Q] | 0.541 | 1.06 | 1.35 | 0.554 | 0.566 | 0.822 | 0.673 | 0.739 | 0.484 | 0.754 | 0.6 | 0.659 | 0.736 | 0.415 | 0.677 | 0.576 |
| QDEHGYISRCF [HSPB1_Y133] | 0.662 | 0.763 | 0.445 | 1.23 | 0.718 | 0.923 | 0.555 | 0.792 | 0.601 | 1.19 | 0.741 | 0.838 | 0.965 | 0.396 | 0.861 | 0.418 |

Now from value to sequence, other results behind:

| SH2 binding enrichment (Grb2 SH2) | SH2 binding enrichment (SHP2-C SH2) | SH2 binding enrichment (c-Src SH2) | Sequence | phosphorylation enrichment (AncSZ) | phosphorylation enrichment (EPHB1) | phosphorylation enrichment (EPHB2) | phosphorylation enrichment (FGFR1) | phosphorylation enrichment (FGFR3) | phosphorylation enrichment (Fer (mouse)) | phosphorylation enrichment (Fes) | phosphorylation enrichment (Fyn) | phosphorylation enrichment (Hck) | phosphorylation enrichment (Jak2) | phosphorylation enrichment (MERTK) | phosphorylation enrichment (c-Abl (mouse)) | phosphorylation enrichment (c-Src) |
| --- | --- | --- | --- | --- | --- | --- | --- | --- | --- | --- | --- | --- | --- | --- | --- | --- |
| 0.747 | 0.676 | 0.622 | PEIIAYQPYGK [PRKCG_Y529] | 0.852 | 0.585 | 0.665 | 0.823 | 0.723 | 0.537 | 1.08 | 0.68 | 0.82 | 1.31 | 0.589 | 1.15 | 0.523 |
| 1.14 | 0.613 | 1.25 | PKGWNYELPAT [PROM1_Y34_A31G] | 1 | 0.597 | 0.454 | 0.518 | 0.592 | 0.433 | 0.867 | 0.531 | 0.516 | 0.698 | 0.45 | 0.696 | 0.383 |
| 0.644 | 2.55 | 0.451 | PLDGEHFTLQI [TP53_Y327_Y327H] | 1.62 | 0.577 | 0.632 | 0.587 | 0.885 | 0.646 | 1.87 | 0.668 | 0.786 | 1.43 | 0.465 | 1.19 | 0.605 |
| 0.615 | 0.498 | 0.349 | PLDGEYVTLQI [TP53_Y327_F328V] | 1.56 | 0.802 | 0.789 | 1.75 | 1.57 | 0.609 | 1.32 | 0.984 | 0.922 | 1.37 | 0.477 | 1.17 | 0.919 |
| 0.743 | 0.604 | 0.309 | PLDVEYFTLQI [TP53_Y327_G325V] | 2.47 | 0.804 | 0.659 | 7.84 | 5.88 | 0.578 | 1.46 | 2.35 | 1.2 | 2.69 | 0.55 | 1.11 | 2.72 |
| 1.13 | 1.04 | 0.662 | PLLLSYFLIKW [NUP160_Y773_YF] | 1.37 | 0.909 | 0.622 | 1.53 | 1.73 | 0.37 | 1.8 | 0.561 | 0.761 | 3.01 | 0.558 | 1.33 | 0.684 |
| 0.873 | 8.91 | 1.25 | PQEVTYAQLDH [KIR3DL2_Y398] | 2.44 | 1.3 | 1.33 | 3.41 | 2.12 | 3.3 | 2.64 | 9.11 | 10.7 | 2.87 | 3.38 | 4.39 | 13.6 |
| 1.27 | 0.834 | 0.661 | PRARTYCYKQE [KLHDC9_Y175_S171R] | 0.847 | 0.467 | 0.574 | 0.497 | 0.557 | 0.716 | 1.01 | 0.527 | 0.435 | 0.981 | 0.483 | 0.91 | 0.667 |
| 0.861 | 0.453 | 0.453 | PRQRRYVFFFS [PTEN_Y174_S170R_YF] | 0.739 | 0.606 | 0.343 | 0.62 | 0.715 | 0.555 | 0.605 | 0.575 | 0.446 | 0.262 | 0.574 | 0.385 | 0.597 |
| 1.03 | 2.31 | 4.64 | PSELFYSKIGP [SMG1_Y2254_YF] | 1.21 | 2.31 | 2.08 | 5.34 | 3.84 | 10.4 | 1.2 | 3.97 | 10.6 | 2.1 | 15.5 | 2.46 | 5.2 |
| 1.16 | 0.449 | 0.394 | PSSRDYKDNIK [PIGN_Y227_H229D] | 0.556 | 0.595 | 0.467 | 0.614 | 0.614 | 0.407 | 0.649 | 0.496 | 0.381 | 0.9 | 0.727 | 0.47 | 0.569 |
| 1.04 | 0.63 | 0.671 | PVDNLYAEPAV [PRPS1_Y146] | 2.52 | 5.2 | 9.31 | 0.61 | 0.986 | 4.64 | 1.31 | 1.96 | 3.99 | 1.02 | 6.34 | 8.54 | 1.56 |
| 0.966 | 1.1 | 0.702 | PVVKLYATEGR [RP1_Y199_D202E] | 0.858 | 0.389 | 0.251 | 0.496 | 0.568 | 0.455 | 0.807 | 0.633 | 0.794 | 0.683 | 0.574 | 0.71 | 0.54 |
| 0.942 | 1.09 | 0.359 | QAEEWYFGKMG [YES1_Y159] | 1.28 | 0.498 | 0.48 | 1.17 | 1.07 | 0.603 | 1.13 | 0.773 | 0.847 | 1.44 | 0.439 | 1.05 | 0.787 |
| 0.966 | 0.795 | 0.699 | QCTSHYPEHVC [SART3_Y541_D540H] | 1.03 | 0.458 | 0.747 | 0.727 | 0.677 | 0.393 | 0.991 | 0.666 | 0.633 | 0.766 | 0.417 | 0.585 | 0.34 |
| 1.11 | 0.717 | 0.644 | QDRDLYPCPGT [RLF_Y671] | 1.05 | 0.71 | 0.693 | 0.484 | 0.878 | 0.687 | 1.37 | 0.936 | 0.429 | 1.1 | 0.751 | 0.863 | 0.613 |
| 0.908 | 0.469 | 0.704 | QEIATCRRLLE [KRT14_Y415_Y415C] | 0.896 | 0.412 | 0.502 | 0.634 | 0.508 | 0.337 | 0.928 | 0.352 | 0.635 | 0.643 | 0.407 | 0.641 | 0.372 |
| 0.768 | 0.332 | 0.593 | QEIATYRRQLE [KRT14_Y415_L418Q] | 1.11 | 0.75 | 1.27 | 0.65 | 0.808 | 0.601 | 1.01 | 0.83 | 0.559 | 0.976 | 0.445 | 0.773 | 0.583 |
